This note sets out measurements from article PMC12634842.

This data set addresses Cys151 (UniProt position 151, SMGEKCVLHVM). The experiment in a line: chemical modification (fluorescence detection). The following applies: 25 °C; 15 mM acetate/15 mM MES/30 mM Tris; Reduced (DTT-treated, desalted) free BTB domain, folded, no ligand.

As a reminder, the pKa is the negative logarithm of the acid dissociation constant. Regarding “Kelch-like ECH-associated protein 1 (KEAP1), BTB domain (Homo sapiens; S172A)”, the pKa amounted to 6.90 ± 0.05.
